The source of these data is patent publication US20240000838A1 (SIMCERE INNOVATION, published 2024).

The target of this assay is T1, Human CD5 Protein, HisTag (AcroBiosystems, Cat #CD5-H52H5) (human, UniProt P06127 25-372).
T1 construct: Bought staining reagent, detected with His-APC antibody; also called CD5 antigen; APC labeled CD5 antigen; not shown: His tag
T1 sequence (looked up): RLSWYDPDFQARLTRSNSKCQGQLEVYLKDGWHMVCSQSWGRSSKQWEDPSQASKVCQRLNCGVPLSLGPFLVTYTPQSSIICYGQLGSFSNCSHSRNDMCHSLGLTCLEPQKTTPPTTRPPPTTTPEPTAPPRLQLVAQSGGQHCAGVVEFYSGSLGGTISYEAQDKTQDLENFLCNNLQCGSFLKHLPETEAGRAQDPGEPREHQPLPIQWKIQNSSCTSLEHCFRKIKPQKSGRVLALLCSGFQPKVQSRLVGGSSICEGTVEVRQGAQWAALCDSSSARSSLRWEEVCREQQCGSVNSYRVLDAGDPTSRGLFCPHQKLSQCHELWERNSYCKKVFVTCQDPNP
As to the kind of experiment: flow cytometry; CAR-T cells stained with soluble human CD5-His and His-APC antibody. Here is the method:
CD3 and CD5 are stained with a CD3-FITC antibody (BD Biosciences, #555339) and a CD5-APC antibody (BD Biosciences, #555355) for 30 minutes at R.T. in the dark. CAR5 surface expression is detected by staining with Human CD5 Protein, HisTag (AcroBiosystems, Cat #CD5-H52H5) for 1 hour at R.T., washed and then incubated with His-APC antibody (R&D Systems, IC050A) for 30 minutes at R.T. in the dark. CAR33 expression is stained with CD33 human protein-PE (Sino Biological, 12238-HCCH_P) for 1 hour at R.T. All the staining is performed at 1:10 dilutions. DAPI (Thermo Scientific, Cat #BV-421, 1:5000) is used to stain dead cells before running by the Attune NxT Flow Cytometer (Thermo Fisher Scientific). Data is further analyzed by either using Attune NxT flow software or FlowJo software.
On the technique in general: In flow cytometry, cells or beads pass a laser one at a time.

B1: CD5 CAR CAR5-6, construct S010 (other)
chain: EIQLVQSGGGLVKPGGSVRISCAASGYTFTNYGMNWVRQAPGKGLEWMGWINTHTGEPTYADSFKGRFTFSLDDSKNTAYLQINSLRAEDTAVYFCTRRGYDWYFDVWGQGTTVTVSSGGGGSGGGGSGGGGSDIQMTQSPSSLSASVGDRVTITCRASQDINSYLSWFQQKPGKAPKTLIYRANRLESGVPSRFSGSGSGTDYTLTISSLQYEDFGIYYCQQYDESPWTFGGGTKLEIKASTTTPAPRPPTPAPTIASQPLSLRPEACRPAAGGAVHTRGLDFACDIYIWAPLAGTCGVLLLSLVITLYCKRGRKKLLYIFKQPFMRPVQTTQEEDGCSCRFPEEEEGGCELRVKFSRSADAPAYKQGQNQLYNELNLGRREEYDVLDKRRGRDPEMGGKPRRKNPQEGLYNELQKDKMAEAYSEIGMKGERRRGKGHDGLYQGLSTATKDTYDALHMQALPPR
notes: Chimeric antigen receptor on T cells
For the molecule B1, the “% of T cells stained with CD5 antigen (CAR5 expression)” value is over 80%.

B2: CD5 CAR CAR5-2, construct S006 (other)
chain: NIQLVQSGPELKKPGETVKISCKASGYTFTNYGMNWVKQAPGKGLRWMGWINTHTGEPTYADDFKGRFAFSLETSASTAYLQINNLKNEDTATYFCTRRGYDWYFDVWGAGTTVTVSSGGGGSGGGGSGGGGSDIKMTQSPSSMYASLGERVTITCKASQDINSYLSWFHHKPGKSPKTLIYRANRLVDGVPSRFSGSGSGQDYSLTISSLDYEDMGIYYCQQYDESPWTFGGGTKLEMKASTTTPAPRPPTPAPTIASQPLSLRPEACRPAAGGAVHTRGLDFACDIYIWAPLAGTCGVLLLSLVITLYCKRGRKKLLYIFKQPFMRPVQTTQEEDGCSCRFPEEEEGGCELRVKFSRSADAPAYKQGQNQLYNELNLGRREEYDVLDKRRGRDPEMGGKPRRKNPQEGLYNELQKDKMAEAYSEIGMKGERRRGKGHDGLYQGLSTATKDTYDALHMQALPPR
notes: as for B1
With B2, the “% of T cells stained with CD5 antigen (CAR5 expression)” value is over 80%.
